# Test results as given in US12679878B2, “CRF2 receptor agonists and their use in therapy” (SANOFI, priority 2020, dated 2026).
# Starred links: 1 amine or outer side, 2 acyl side, 3 side chain; linkers in the order of their positions; H or OH if unused. Non-standard residues stand in square brackets, D forms with d. Groups on a side chain read outwards from the residue. No end group written: not given here. *: point of attachment. C20 diacid = O=C(O)CCCCCCCCCCCCCCCCCCC(=O)*; C18 diacid = O=C(O)CCCCCCCCCCCCCCCCC(=O)*; γGlu = O=C(O)[C@H](CCC(=O)[*:2])N[*:1]; Palmitoyl = CCCCCCCCCCCCCCCC(=O)*; AEEA = NCCOCCOCC(=O)O; Aib = CC(C)(N)C(=O)O
# B1: SEQ ID NO: 174 (peptide)
# peptide: IVLSLD[dV]PIKLK([AEEA-AEEA-γGlu-γGlu-C18 diacid])QILLKQARQK[Aib]QRAQAEKNKRILERV-NH2
# modifications: N-terminus assumed
# SMILES: CC[C@H](C)[C@H](N)C(=O)N[C@H](C(=O)N[C@@H](CC(C)C)C(=O)N[C@@H](CO)C(=O)N[C@@H](CC(C)C)C(=O)N[C@@H](CC(=O)O)C(=O)N[C@@H](C(=O)N1CCC[C@H]1C(=O)N[C@H](C(=O)N[C@@H](CCCCN)C(=O)N[C@@H](CC(C)C)C(=O)N[C@@H](CCCCNC(=O)COCCOCCNC(=O)COCCOCCNC(=O)CC[C@H](NC(=O)CC[C@H](NC(=O)CCCCCCCCCCCCCCCCC(=O)O)C(=O)O)C(=O)O)C(=O)N[C@@H](CCC(N)=O)C(=O)N[C@H](C(=O)N[C@@H](CC(C)C)C(=O)N[C@@H](CC(C)C)C(=O)N[C@@H](CCCCN)C(=O)N[C@@H](CCC(N)=O)C(=O)N[C@@H](C)C(=O)N[C@@H](CCCNC(=N)N)C(=O)N[C@@H](CCC(N)=O)C(=O)N[C@@H](CCCCN)C(=O)NC(C)(C)C(=O)N[C@@H](CCC(N)=O)C(=O)N[C@@H](CCCNC(=N)N)C(=O)N[C@@H](C)C(=O)N[C@@H](CCC(N)=O)C(=O)N[C@@H](C)C(=O)N[C@@H](CCC(=O)O)C(=O)N[C@@H](CCCCN)C(=O)N[C@@H](CC(N)=O)C(=O)N[C@@H](CCCCN)C(=O)N[C@@H](CCCNC(=N)N)C(=O)N[C@H](C(=O)N[C@@H](CC(C)C)C(=O)N[C@@H](CCC(=O)O)C(=O)N[C@@H](CCCNC(=N)N)C(=O)N[C@H](C(N)=O)C(C)C)[C@@H](C)CC)[C@@H](C)CC)[C@@H](C)CC)C(C)C)C(C)C
# B2: SEQ ID NO: 171 (peptide)
# peptide: IVLSLD[dV]PIKLK([AEEA-AEEA-γGlu-γGlu-C18 diacid])QILLKQERQK[Aib]QREQAEKNKQILAQV-NH2
# modifications: N-terminus assumed
# SMILES: CC[C@H](C)[C@H](N)C(=O)N[C@H](C(=O)N[C@@H](CC(C)C)C(=O)N[C@@H](CO)C(=O)N[C@@H](CC(C)C)C(=O)N[C@@H](CC(=O)O)C(=O)N[C@@H](C(=O)N1CCC[C@H]1C(=O)N[C@H](C(=O)N[C@@H](CCCCN)C(=O)N[C@@H](CC(C)C)C(=O)N[C@@H](CCCCNC(=O)COCCOCCNC(=O)COCCOCCNC(=O)CC[C@H](NC(=O)CC[C@H](NC(=O)CCCCCCCCCCCCCCCCC(=O)O)C(=O)O)C(=O)O)C(=O)N[C@@H](CCC(N)=O)C(=O)N[C@H](C(=O)N[C@@H](CC(C)C)C(=O)N[C@@H](CC(C)C)C(=O)N[C@@H](CCCCN)C(=O)N[C@@H](CCC(N)=O)C(=O)N[C@@H](CCC(=O)O)C(=O)N[C@@H](CCCNC(=N)N)C(=O)N[C@@H](CCC(N)=O)C(=O)N[C@@H](CCCCN)C(=O)NC(C)(C)C(=O)N[C@@H](CCC(N)=O)C(=O)N[C@@H](CCCNC(=N)N)C(=O)N[C@@H](CCC(=O)O)C(=O)N[C@@H](CCC(N)=O)C(=O)N[C@@H](C)C(=O)N[C@@H](CCC(=O)O)C(=O)N[C@@H](CCCCN)C(=O)N[C@@H](CC(N)=O)C(=O)N[C@@H](CCCCN)C(=O)N[C@@H](CCC(N)=O)C(=O)N[C@H](C(=O)N[C@@H](CC(C)C)C(=O)N[C@@H](C)C(=O)N[C@@H](CCC(N)=O)C(=O)N[C@H](C(N)=O)C(C)C)[C@@H](C)CC)[C@@H](C)CC)[C@@H](C)CC)C(C)C)C(C)C
# B3: SEQ ID NO: 172 (peptide)
# peptide: IVLSLD[dV]PIKLK([AEEA-AEEA-γGlu-γGlu-C20 diacid])QILLKQERQK[Aib]QREQAEKNKQILAQV-NH2
# modifications: N-terminus assumed
# SMILES: CC[C@H](C)[C@H](N)C(=O)N[C@H](C(=O)N[C@@H](CC(C)C)C(=O)N[C@@H](CO)C(=O)N[C@@H](CC(C)C)C(=O)N[C@@H](CC(=O)O)C(=O)N[C@@H](C(=O)N1CCC[C@H]1C(=O)N[C@H](C(=O)N[C@@H](CCCCN)C(=O)N[C@@H](CC(C)C)C(=O)N[C@@H](CCCCNC(=O)COCCOCCNC(=O)COCCOCCNC(=O)CC[C@H](NC(=O)CC[C@H](NC(=O)CCCCCCCCCCCCCCCCCCC(=O)O)C(=O)O)C(=O)O)C(=O)N[C@@H](CCC(N)=O)C(=O)N[C@H](C(=O)N[C@@H](CC(C)C)C(=O)N[C@@H](CC(C)C)C(=O)N[C@@H](CCCCN)C(=O)N[C@@H](CCC(N)=O)C(=O)N[C@@H](CCC(=O)O)C(=O)N[C@@H](CCCNC(=N)N)C(=O)N[C@@H](CCC(N)=O)C(=O)N[C@@H](CCCCN)C(=O)NC(C)(C)C(=O)N[C@@H](CCC(N)=O)C(=O)N[C@@H](CCCNC(=N)N)C(=O)N[C@@H](CCC(=O)O)C(=O)N[C@@H](CCC(N)=O)C(=O)N[C@@H](C)C(=O)N[C@@H](CCC(=O)O)C(=O)N[C@@H](CCCCN)C(=O)N[C@@H](CC(N)=O)C(=O)N[C@@H](CCCCN)C(=O)N[C@@H](CCC(N)=O)C(=O)N[C@H](C(=O)N[C@@H](CC(C)C)C(=O)N[C@@H](C)C(=O)N[C@@H](CCC(N)=O)C(=O)N[C@H](C(N)=O)C(C)C)[C@@H](C)CC)[C@@H](C)CC)[C@@H](C)CC)C(C)C)C(C)C
# B4: SEQ ID NO: 170 (peptide)
# peptide: Ac-IVLSLD[dV]PIELK([AEEA-AEEA-γGlu-C18 diacid])QILLEQERQE[Aib]QREQAEKNEQILEQV-NH2
# SMILES: CC[C@H](C)[C@H](NC(C)=O)C(=O)N[C@H](C(=O)N[C@@H](CC(C)C)C(=O)N[C@@H](CO)C(=O)N[C@@H](CC(C)C)C(=O)N[C@@H](CC(=O)O)C(=O)N[C@@H](C(=O)N1CCC[C@H]1C(=O)N[C@H](C(=O)N[C@@H](CCC(=O)O)C(=O)N[C@@H](CC(C)C)C(=O)N[C@@H](CCCCNC(=O)COCCOCCNC(=O)COCCOCCNC(=O)CC[C@H](NC(=O)CCCCCCCCCCCCCCCCC(=O)O)C(=O)O)C(=O)N[C@@H](CCC(N)=O)C(=O)N[C@H](C(=O)N[C@@H](CC(C)C)C(=O)N[C@@H](CC(C)C)C(=O)N[C@@H](CCC(=O)O)C(=O)N[C@@H](CCC(N)=O)C(=O)N[C@@H](CCC(=O)O)C(=O)N[C@@H](CCCNC(=N)N)C(=O)N[C@@H](CCC(N)=O)C(=O)N[C@@H](CCC(=O)O)C(=O)NC(C)(C)C(=O)N[C@@H](CCC(N)=O)C(=O)N[C@@H](CCCNC(=N)N)C(=O)N[C@@H](CCC(=O)O)C(=O)N[C@@H](CCC(N)=O)C(=O)N[C@@H](C)C(=O)N[C@@H](CCC(=O)O)C(=O)N[C@@H](CCCCN)C(=O)N[C@@H](CC(N)=O)C(=O)N[C@@H](CCC(=O)O)C(=O)N[C@@H](CCC(N)=O)C(=O)N[C@H](C(=O)N[C@@H](CC(C)C)C(=O)N[C@@H](CCC(=O)O)C(=O)N[C@@H](CCC(N)=O)C(=O)N[C@H](C(N)=O)C(C)C)[C@@H](C)CC)[C@@H](C)CC)[C@@H](C)CC)C(C)C)C(C)C
# B5: SEQ ID NO: 20 (peptide)
# peptide: IVLSLD[dV]PTKLK([γGlu-Palmitoyl])QKLLKQERQRK[Aib]REQAEKNKRILERV-NH2
# modifications: N-terminus assumed
# SMILES: CCCCCCCCCCCCCCCC(=O)N[C@@H](CCC(=O)NCCCC[C@H](NC(=O)[C@H](CC(C)C)NC(=O)[C@H](CCCCN)NC(=O)[C@@H](NC(=O)[C@@H]1CCCN1C(=O)[C@H](NC(=O)[C@H](CC(=O)O)NC(=O)[C@H](CC(C)C)NC(=O)[C@H](CO)NC(=O)[C@H](CC(C)C)NC(=O)[C@@H](NC(=O)[C@@H](N)[C@@H](C)CC)C(C)C)C(C)C)[C@@H](C)O)C(=O)N[C@@H](CCC(N)=O)C(=O)N[C@@H](CCCCN)C(=O)N[C@@H](CC(C)C)C(=O)N[C@@H](CC(C)C)C(=O)N[C@@H](CCCCN)C(=O)N[C@@H](CCC(N)=O)C(=O)N[C@@H](CCC(=O)O)C(=O)N[C@@H](CCCNC(=N)N)C(=O)N[C@@H](CCC(N)=O)C(=O)N[C@@H](CCCNC(=N)N)C(=O)N[C@@H](CCCCN)C(=O)NC(C)(C)C(=O)N[C@@H](CCCNC(=N)N)C(=O)N[C@@H](CCC(=O)O)C(=O)N[C@@H](CCC(N)=O)C(=O)N[C@@H](C)C(=O)N[C@@H](CCC(=O)O)C(=O)N[C@@H](CCCCN)C(=O)N[C@@H](CC(N)=O)C(=O)N[C@@H](CCCCN)C(=O)N[C@@H](CCCNC(=N)N)C(=O)N[C@H](C(=O)N[C@@H](CC(C)C)C(=O)N[C@@H](CCC(=O)O)C(=O)N[C@@H](CCCNC(=N)N)C(=O)N[C@H](C(N)=O)C(C)C)[C@@H](C)CC)C(=O)O
# B6: SEQ ID NO: 173 (peptide)
# peptide: IVLSLD[dV]PIKLK([AEEA-AEEA-γGlu-C20 diacid])QILLKQERQK[Aib]QREQAEKNKQILAQV-NH2
# modifications: N-terminus assumed
# SMILES: CC[C@H](C)[C@H](N)C(=O)N[C@H](C(=O)N[C@@H](CC(C)C)C(=O)N[C@@H](CO)C(=O)N[C@@H](CC(C)C)C(=O)N[C@@H](CC(=O)O)C(=O)N[C@@H](C(=O)N1CCC[C@H]1C(=O)N[C@H](C(=O)N[C@@H](CCCCN)C(=O)N[C@@H](CC(C)C)C(=O)N[C@@H](CCCCNC(=O)COCCOCCNC(=O)COCCOCCNC(=O)CC[C@H](NC(=O)CCCCCCCCCCCCCCCCCCC(=O)O)C(=O)O)C(=O)N[C@@H](CCC(N)=O)C(=O)N[C@H](C(=O)N[C@@H](CC(C)C)C(=O)N[C@@H](CC(C)C)C(=O)N[C@@H](CCCCN)C(=O)N[C@@H](CCC(N)=O)C(=O)N[C@@H](CCC(=O)O)C(=O)N[C@@H](CCCNC(=N)N)C(=O)N[C@@H](CCC(N)=O)C(=O)N[C@@H](CCCCN)C(=O)NC(C)(C)C(=O)N[C@@H](CCC(N)=O)C(=O)N[C@@H](CCCNC(=N)N)C(=O)N[C@@H](CCC(=O)O)C(=O)N[C@@H](CCC(N)=O)C(=O)N[C@@H](C)C(=O)N[C@@H](CCC(=O)O)C(=O)N[C@@H](CCCCN)C(=O)N[C@@H](CC(N)=O)C(=O)N[C@@H](CCCCN)C(=O)N[C@@H](CCC(N)=O)C(=O)N[C@H](C(=O)N[C@@H](CC(C)C)C(=O)N[C@@H](C)C(=O)N[C@@H](CCC(N)=O)C(=O)N[C@H](C(N)=O)C(C)C)[C@@H](C)CC)[C@@H](C)CC)[C@@H](C)CC)C(C)C)C(C)C
# Biological target: human corticotropin-releasing factor 2α (CRF2 α receptor) (human), Q13324
# Sequence (Q13324 20-411): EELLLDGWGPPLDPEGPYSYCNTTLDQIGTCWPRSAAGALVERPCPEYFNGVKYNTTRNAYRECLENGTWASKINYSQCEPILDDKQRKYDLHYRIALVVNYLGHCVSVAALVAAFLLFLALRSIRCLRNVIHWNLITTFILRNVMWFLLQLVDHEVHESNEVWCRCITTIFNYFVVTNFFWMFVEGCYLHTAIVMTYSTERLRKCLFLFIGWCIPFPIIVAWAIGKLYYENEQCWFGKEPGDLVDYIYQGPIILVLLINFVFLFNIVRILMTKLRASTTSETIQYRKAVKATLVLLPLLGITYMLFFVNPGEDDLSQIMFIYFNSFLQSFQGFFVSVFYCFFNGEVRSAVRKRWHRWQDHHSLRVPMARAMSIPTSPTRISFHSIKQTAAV
# Assay: cell-based or functional assay
Binder,"EC50 [nM], 0% HSA","EC50 [nM], 0.1% HSA"
B1,0.07 nM,0.88 nM
B2,0.17 nM,2.62 nM
B3,0.04 nM,2.76 nM
B4,62.1 nM,
B5,0.01 nM,
B6,0.03 nM,3.49 nM
